# Measured values published in the supplement of paper PMC7877785.
# ± gives the uncertainty stated by the source.
# Assay: self-splicing fitness, log relative to wild type (ln ratio); higher = more splicing; Tetrahymena group I intron in knt gene, E. coli kanamycin selection, DiMSum; sequences stand for … in CUCUCU…GGAGGGAAAAGUUAUCAGGCAUGCACCUGGUAGCUAGUCUUUAAACCAAUAGAUUGCAUCGGUUUAAAAGGCAAGACCGUCAAAUUGCGGGAAAGGGGUCAACAGCCGUUCAGUACCAAGUCUCAGGGGAAACUUUGAGAUGGCCUUGCAAAGGGUAUGGUAAUAAGCUGACGGACAUGGUCCUAACCACGCAGCCAAGUCCUAAGUCAACAGAUCUUCUGUUGAUAUGGAUGCAGUUCACAGACUAAAUGUCGGUCGGGGAAGAUGUAUUCUUCUCAUAAGAUAUAGUCGGACCUCUCCUUAAUGGGAGCUAGCGGAUGAAGUGAUGCAACACUGGAGCCGCUGGGAACUAAUUUGUAUGCGAAAGUAUAUUGAUUAGUUUUGGAGUACUCGUGGUCG
# How it was run: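 The eight P1ex-region nucleotides of an intron in the knt kanamycin-resistance gene on pET-22b(+) were all randomised and the library put into E. coli BL21(DE3). Six replicate transformations were grown overnight at 37°C or 30°C on LB agar with or without 25 μg/mL kanamycin, together with 100 μg/mL carbenicillin, 50 μM IPTG and 0.2% rhamnose. Colonies were pooled and amplicon-sequenced on an Illumina HiSeq 2500. Fitness from DiMSum is the error-weighted combination of wild-type-normalised replicate fold changes, kanamycin over none.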
Sequence,self-splicing fitness (ln) (30 °C),self-splicing fitness (ln) (37 °C)
CAAAAGCAAUAUUACGUCUG,-0.838 ± 0.042,-0.0271 ± 0.052
CAAAAGCAAUAUUACGUUUU,-3.57 ± 0.12,-2.79 ± 0.16
CAACAGCAAUAUUACGAACC,-2.27 ± 0.25,-1.62 ± 0.22
CAACAGCAAUAUUACGAAGG,-0.969 ± 0.059,-0.0092 ± 0.078
CAACAGCAAUAUUACGACAG,-0.131 ± 0.073,0.499 ± 0.09
CAACAGCAAUAUUACGACGC,-0.56 ± 0.065,-0.0606 ± 0.085
CAACAGCAAUAUUACGAGCA,-2.97 ± 0.15,-1.01 ± 0.11
CAACAGCAAUAUUACGCAGA,-3.45 ± 0.14,-1.35 ± 0.075
CAACAGCAAUAUUACGCCAG,-1.4 ± 0.11,-0.809 ± 0.14
CAACAGCAAUAUUACGCGAG,-2.29 ± 0.089,-0.359 ± 0.066
CAACAGCAAUAUUACGCGCU,-3.18 ± 0.23,-1.97 ± 0.19
CAACAGCAAUAUUACGCUCG,-0.822 ± 0.072,-0.727 ± 0.1
CAACAGCAAUAUUACGCUGU,-2.11 ± 0.2,-2.65 ± 0.26
CAACAGCAAUAUUACGCUUU,-2.5 ± 0.17,-2.54 ± 0.2
CAACAGCAAUAUUACGGAUU,-2.92 ± 0.13,-1.94 ± 0.14
CAACAGCAAUAUUACGGCAG,-0.117 ± 0.069,-0.00847 ± 0.076
CAACAGCAAUAUUACGGGGG,-2.07 ± 0.13,-1.08 ± 0.1
CAACAGCAAUAUUACGGUCA,-1.16 ± 0.066,-0.339 ± 0.069
CAACAGCAAUAUUACGUAGA,-2.68 ± 0.081,-1.18 ± 0.081
CAACAGCAAUAUUACGUCUA,-1.06 ± 0.053,-0.786 ± 0.055
CAACAGCAAUAUUACGUGAC,-4.28 ± 0.22,-2.23 ± 0.15
CAACAGCAAUAUUACGUGAG,-0.531 ± 0.049,-0.233 ± 0.07
CAACAGCAAUAUUACGUUAA,-2.36 ± 0.11,-2.16 ± 0.12
CAACAGCAAUAUUACGUUAC,-3.99 ± 0.21,-2.44 ± 0.14

Sequence,self-splicing fitness (ln) (30 °C),self-splicing fitness (ln) (37 °C)
CAACAGCAAUAUUACGUUAU,-3.16 ± 0.13,-1.94 ± 0.13
CAACAGCAAUAUUACGUUGU,-4.21 ± 0.18,-3.06 ± 0.16
CAACAGCAAUAUUACGUUUC,-3.28 ± 0.14,-2.33 ± 0.16
CAAGAGCAAUAUUACGAAAG,-1.52 ± 0.12,-1.64 ± 0.16
CAAGAGCAAUAUUACGAACU,-3.41 ± 0.27,-2.11 ± 0.26
CAAGAGCAAUAUUACGACGC,–,-1.56 ± 0.32
CAAGAGCAAUAUUACGACUA,-3.01 ± 0.23,-2.47 ± 0.21
CAAGAGCAAUAUUACGAGAC,-2.43 ± 0.37,-1.93 ± 0.35
CAAGAGCAAUAUUACGCCAG,-1.92 ± 0.24,-2 ± 0.41
CAAGAGCAAUAUUACGCCUU,-3.52 ± 0.32,-2.57 ± 0.41
CAAGAGCAAUAUUACGCGAU,-2.62 ± 0.22,-2.51 ± 0.49
CAAGAGCAAUAUUACGCUAU,-3.62 ± 0.38,-2.19 ± 0.27
CAAGAGCAAUAUUACGGGCA,-2.96 ± 0.24,-1.79 ± 0.23
CAAGAGCAAUAUUACGGGUU,-3.54 ± 0.18,-3.25 ± 0.23
CAAGAGCAAUAUUACGGUGU,-3.52 ± 0.15,-2.08 ± 0.17
CAAGAGCAAUAUUACGUAUG,-3.02 ± 0.13,-1.36 ± 0.15
CAAGAGCAAUAUUACGUCCC,–,-1.59 ± 0.28
CAAGAGCAAUAUUACGUCUA,-2.41 ± 0.13,-1.56 ± 0.11
CAAGAGCAAUAUUACGUCUC,-3.6 ± 0.17,-2.73 ± 0.18
CAAGAGCAAUAUUACGUCUG,-1.45 ± 0.15,-0.511 ± 0.16
CAAUAGCAAUAUUACGAGAU,-2.72 ± 0.12,-2.82 ± 0.17
CAAUAGCAAUAUUACGAGGU,-4.24 ± 0.28,-1.93 ± 0.21
CAAUAGCAAUAUUACGAUGG,-1.09 ± 0.074,-0.114 ± 0.096
CAAUAGCAAUAUUACGCACC,-3.66 ± 0.3,–

Sequence,self-splicing fitness (ln) (30 °C),self-splicing fitness (ln) (37 °C)
CAAUAGCAAUAUUACGCCAG,-1.21 ± 0.12,-0.652 ± 0.15
CAAUAGCAAUAUUACGCCGA,-2.61 ± 0.26,-1.59 ± 0.17
CAAUAGCAAUAUUACGCGGA,-3.59 ± 0.35,-2.05 ± 0.16
CAAUAGCAAUAUUACGCGUG,-1.93 ± 0.092,-1.44 ± 0.095
CAAUAGCAAUAUUACGCUCU,-3.28 ± 0.24,-1.88 ± 0.17
CAAUAGCAAUAUUACGGAUA,-3.03 ± 0.48,-2.77 ± 0.35
CAAUAGCAAUAUUACGGCGG,0.429 ± 0.11,-0.0335 ± 0.14
CAAUAGCAAUAUUACGGCUA,-2.26 ± 0.22,-2.1 ± 0.19
CAAUAGCAAUAUUACGGCUU,-2.53 ± 0.13,-1.42 ± 0.13
CAAUAGCAAUAUUACGGUGA,-2.83 ± 0.23,-2.09 ± 0.21
CAAUAGCAAUAUUACGUAGG,-0.348 ± 0.092,-0.384 ± 0.14
CAAUAGCAAUAUUACGUCCU,-3.78 ± 0.42,-2.4 ± 0.28
CAAUAGCAAUAUUACGUCGC,-4.1 ± 0.36,-2.56 ± 0.29
CAAUAGCAAUAUUACGUCGG,-0.177 ± 0.069,0.202 ± 0.083
CAAUAGCAAUAUUACGUCUA,-2.78 ± 0.19,-2.52 ± 0.21
CAAUAGCAAUAUUACGUGGA,-3.29 ± 0.25,-2.92 ± 0.22
CAAUAGCAAUAUUACGUGGG,-3.7 ± 0.15,-3.49 ± 0.21
CAAUAGCAAUAUUACGUGUU,-4.08 ± 0.16,-2.95 ± 0.17
CAAUAGCAAUAUUACGUUCG,-0.45 ± 0.057,0.556 ± 0.081
CACAAGCAAUAUUACGAAAG,-0.721 ± 0.08,0.0107 ± 0.1
CACAAGCAAUAUUACGAAAU,-2.91 ± 0.19,-3.24 ± 0.24
CACAAGCAAUAUUACGACAA,-3.12 ± 0.2,-2.04 ± 0.17
CACAAGCAAUAUUACGACCC,-2.15 ± 0.4,-0.814 ± 0.24
CACAAGCAAUAUUACGACCG,0.562 ± 0.17,0.582 ± 0.2

Sequence,self-splicing fitness (ln) (30 °C),self-splicing fitness (ln) (37 °C)
CACAAGCAAUAUUACGACGA,-0.927 ± 0.11,-0.995 ± 0.12
CACAAGCAAUAUUACGACGC,-2.86 ± 0.32,-1.17 ± 0.18
CACAAGCAAUAUUACGAUCG,-0.581 ± 0.069,0.875 ± 0.091
CACAAGCAAUAUUACGAUGA,-2.99 ± 0.11,-1.21 ± 0.09
CACAAGCAAUAUUACGAUGG,-0.756 ± 0.045,0.369 ± 0.07
CACAAGCAAUAUUACGCAAG,-1.54 ± 0.087,-0.814 ± 0.1
CACAAGCAAUAUUACGCGAC,-2.93 ± 0.15,-3.22 ± 0.27
CACAAGCAAUAUUACGCUCA,-1.45 ± 0.093,-0.209 ± 0.097
CACAAGCAAUAUUACGGACA,-2.34 ± 0.12,-2.29 ± 0.12
CACAAGCAAUAUUACGGACC,-3.41 ± 0.24,-1.73 ± 0.2
CACAAGCAAUAUUACGGAUA,-1.79 ± 0.15,-2.4 ± 0.17
CACAAGCAAUAUUACGGCAC,-2.95 ± 0.19,-1.56 ± 0.17
CACAAGCAAUAUUACGGCCA,-1.1 ± 0.13,-0.928 ± 0.16
CACAAGCAAUAUUACGGGCU,-4.15 ± 0.24,-2.29 ± 0.17
CACAAGCAAUAUUACGUACG,-0.467 ± 0.063,0.449 ± 0.083
CACAAGCAAUAUUACGUACU,-3.09 ± 0.12,-0.878 ± 0.1
CACAAGCAAUAUUACGUAUG,-2.55 ± 0.095,-1.08 ± 0.085
CACAAGCAAUAUUACGUGAG,-4.48 ± 0.15,-3.21 ± 0.19
CACAAGCAAUAUUACGUGUG,-3.65 ± 0.12,-2.69 ± 0.12
CACAAGCAAUAUUACGUUUU,-4.18 ± 0.15,-3.45 ± 0.22
CACCAGCAAUAUUACGAAGA,-3.26 ± 0.21,-1.81 ± 0.2
CACCAGCAAUAUUACGAGCU,-3.87 ± 0.16,-3.55 ± 0.27
CACCAGCAAUAUUACGCACA,-1.23 ± 0.16,-0.504 ± 0.14
CACCAGCAAUAUUACGCAGU,-3.61 ± 0.19,-2.09 ± 0.23
